Holding throughout (experiment): pull-down; LuMPIS: N-terminally MBP-tagged bait pulled down on amylose beads, N-terminally eGFP-luciferase-tagged prey detected by luciferase activity; both expressed in HEK cells, raw protein extracts; quadruplicates; LIR against MBP without ORF
For assay [1], the target named is Dp-1 orf29, Hypothetical protein (LuMPIS construct) (phage Dp-1 of S. pneumoniae).
Assay [2] concerns the target Dp-1 orf60, Hypothetical protein (LuMPIS construct) (phage Dp-1 of S. pneumoniae).
The target of assay [3] is Dp-1 orf39, Zinc finger protein (LuMPIS construct) (phage Dp-1 of S. pneumoniae).
Assay [4] deals with Dp-1 orf16, NAD-dependent DNA ligase (LuMPIS construct) (phage Dp-1 of S. pneumoniae).
In assay [5] the target is Dp-1 orf31, Hypothetical protein (LuMPIS construct) (phage Dp-1 of S. pneumoniae).
The target of assay [6] is Dp-1 orf9, No similarity (LuMPIS construct) (phage Dp-1 of S. pneumoniae).
Assay [7] addresses Dp-1 orf32, Hypothetical protein (LuMPIS construct) (phage Dp-1 of S. pneumoniae).
The target of assay [8] is Cp-1 orf16, Hypothetical protein (LuMPIS construct) (phage Cp-1 of S. pneumoniae).
The target in assay [9] is Dp-1 orf58, Holin (LuMPIS construct) (phage Dp-1 of S. pneumoniae).
Assay [10] addresses Dp-1 orf72, Membrane protein (LuMPIS construct) (phage Dp-1 of S. pneumoniae).
Assay [11] concerns the target Dp-1 orf47, Hypothetical protein (LuMPIS construct) (phage Dp-1 of S. pneumoniae).
For assay [12], the target named is Dp-1 orf33, Hypothetical protein (LuMPIS construct) (phage Dp-1 of S. pneumoniae).
For assay [13], the target named is Dp-1 orf51, Hypothetical protein (LuMPIS construct) (phage Dp-1 of S. pneumoniae).
Assay [14] has as its target T1, Cp-1 Cpl1, Lysozyme (LuMPIS construct) (phage Cp-1 of S. pneumoniae, UniProt P15057 1-339).
T1 construct: Cpl1 lysozyme of phage Cp-1; ORF in a Gateway LuMPIS vector; source: HEK cells, raw protein extract
T1 sequence: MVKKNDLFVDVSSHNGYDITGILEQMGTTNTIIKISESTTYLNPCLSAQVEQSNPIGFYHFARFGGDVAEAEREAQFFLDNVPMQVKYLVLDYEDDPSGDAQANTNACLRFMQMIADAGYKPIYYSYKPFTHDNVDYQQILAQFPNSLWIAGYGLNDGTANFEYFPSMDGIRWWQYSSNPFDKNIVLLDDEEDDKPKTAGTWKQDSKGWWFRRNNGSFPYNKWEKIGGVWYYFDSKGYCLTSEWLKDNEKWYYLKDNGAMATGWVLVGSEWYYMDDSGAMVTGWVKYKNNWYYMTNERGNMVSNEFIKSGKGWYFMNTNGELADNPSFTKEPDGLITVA
The conditions noted are these: partners not purified.

As for “SP_2012, glyceraldehyde 3-phosphate dehydrogenase (LuMPIS construct) (natural protein)”, in [1], the LIR (luminescence intensity ratio against MBP alone) was 3. “SP_2024, PTS system, IIA component (LuMPIS construct) (from UniProt A0A0H2US90 1-108) (natural protein)”: the LIR (luminescence intensity ratio against MBP alone) in [2] was 5. In the case of “SP_0259, Holliday junction DNA helicase RuvB (LuMPIS construct) (from UniProt Q97SR6 1-332) (natural protein)”, the LIR (luminescence intensity ratio against MBP alone) came out at 10 in assay [3]; 5 in assay [4]; 4 in assay [5]; 11 in assay [6]; 3 in assay [7]; 12 in assay [8]. In the case of “SP_1606, glycosyl transferase, family 2 (LuMPIS construct) (from UniProt A0A0H2UQY5 1-320) (natural protein)”, the LIR (luminescence intensity ratio against MBP alone) in assay [9] is 3; in assay [10], 50. For the molecule “SP_0687, ABC transporter, ATP-binding protein (LuMPIS construct) (from UniProt A0A0H2UP48 1-213) (natural protein)”, the LIR (luminescence intensity ratio against MBP alone) in assay [11] was 4.

B1: SP_1088, DNA repair protein RadC (LuMPIS construct) (natural protein)
chain: MYSISFQEDSLLPRERLAKEGVEALSNQELLAILLRTGTRQASVFEIAQKVLNNLSSLTDLKKMTLQELQSLSGIGRVKAIELQAMIELGHRIHKHETLEMESILSSQKLAKKMQQELGDKKQEHLVALYLNTQNQIIHQQTIFIGSVTRSIAEPREILHYAIKHMATSLILVHNHPSGAVAPSQNDDHVTKLVKEACELMGIVLLDHLIVSHSNYFSYREKTDLI
For the molecule B1, in [12], the LIR (luminescence intensity ratio against MBP alone) came to 3.

B2: SP_1672, recombination protein RecR (LuMPIS construct) (natural protein)
chain: MLYPTPIAKLIDSYSKLPGIGIKTATRLAFYTIGMSADDVNEFAKNLLSAKRELTYCSICGRLTDDDPCSICTDPTRDQTTILVLEDSRDVAAMENIQEYHGLYHVLHGLISPMNGISPDDINLKSLMTRLMDSEVSEVIVATNATADGEATSMYLSRLLKPAGIKVTRLARGLAVGADIEYADEVTLLRAIENRTEL
B2: the LIR (luminescence intensity ratio against MBP alone) in assay [13] came to 6.

B3: SP_1208, uridine kinase (LuMPIS construct) (natural protein, S. pneumoniae TIGR4, UniProt P67413 1-212, looked up)
chain: MQNRPIIIGVTGGSGGGKTSVSRAILSHFPDEKISMIEHDSYYKDQSHLTFEERVKTNYDHPFAFDTDLMIEQIKELLAGRPVDIPTYDYTEHTRSSKTYRQEPQDVFIVEGILVLEDKRLRDLMDIKIFVDTDDDVRIIRRIKRDMEERGRSLDSVINQYLGVVKPMYHQFIESTKRYADIVIPEGVSNTVAIDLLTTKIAKILEEARNSK
notes: SP_1208 uridine kinase, S. pneumoniae TIGR4; ORF in a Gateway LuMPIS vector; source: HEK cells, raw protein extract
Take B3: the “LIR (luminescence intensity ratio against MBP alone)” value in assay [14] was determined as 4.

The values above are taken from publication PMC4840434, “The interactome of Streptococcus pneumoniae and its bacteriophages show highly specific patterns of interactions among bacteria and their phages” (Scientific Reports, 2016).
